The results in this text go back to the NTF2 design screens of Basanta et al. (2020).

A short description of this series: protease stability score; higher = more stable; yeast display proteolysis, trypsin and chymotrypsin.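 Also: relative to predicted unfolded state with 0 unfolded-like and 1 meaning tenfold more protease.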
In turn, “DQEERDSKHALRFMEHVISTGDEHLIEELLDPHARLDINGVDVHGREEVKRTITEHRKRYKNLRIHVTDLEVVNGVVRLHTELNIGDKRFEVRWFLDKIDGRWLMTEIRIR” had a protease stability score of 1.12.
In the case of “DEREEIAKHLLDLLMHFSKTGDWKKIEDLFDPNTRIHINGVEHVGMEEIARHISEWRIHSIHIKHLDYQGEFIHMDGELDVEVNGRRHKTRMHIIVVKYNGRWLIHHIEVH”, the protease stability score was found to be 2.03.
In the case of “SHEDELNEKIAKTFFKDLLTGDEDSITHLLDPNARVHIHVNGRHILIHGREWLEYLKKHARIRHFELHDMEIQGDKLIFDVEVVIEYGDKVIERRSEEILILFNGRVTSYHLIIK” it was 1.2; in that of “SEEEEESKYALKIERELLYTGDWHLLTRYADPDVRATINGQKVIGRELFSHIFLEELDKLGMRIHDIRETHWTLINGVAIHHMRINTRQGEKSYHTEMNLISLKVDGRWLIQSYELG”, 0.523.
As to “DEDEHLARRLSTEVEKLMLTGDEHLIKRLLDPDARINVNGVDLHGRHHYITHLHRFLLEAGVDNVHSELTTWRVYGDYVHVHGTLHINGVRFNHHFLFEKVDGRWIIKWLDDR”, the protease stability score turned out to be 1.12.
Turning to “DEDTEKLEKMIEELFKLWLTGDEEKLTHLADPNMRVDVNGRDLHGRHLMSSLWRQIRIEDQRLRIRDWEFFDGRVTIHSHITVRGHINGRHEEITHDVRIVVDKINGRWIIREFRIH”, the protease stability score is 1.27.
For “SEEDKHLRKMAQDILEWLFTGNWKDFFDNLDPNYRVEWNGKERIGRDLTRRMLETIRREMRLHDIKIHHFTAIDGVIHIDGSEYIHVDGVTTEVKTHIHIVIFNGRIKRIEFHDH”, the protease stability score is 1.48.
“DEDTKIVEEAIRYHKHNIETGNEEYMDKLADPNTRLEINGVEFHGRESYNHWMRRVLEHWRFHDIKIDSVDVFNGRVRFYGRRIVKIGEFTMIFEITYISTKFNGRWILEEEENR” came in with a protease stability score of 0.564.
On to “SEDERLMKKLWEDLIRDLITGDEDSMKRLADPNVLVEFENHKEHGRDLFSHLMFHARIKRIHTHEVEIQGDKAVYNVRIDGEINGQRHDYEREIYSFKVNGQWFIERVIIK”, for which the protease stability score was determined as 1.4.
The sequence “DEDREAIELLVRLLITAHETGDEKILWDLMDPNVRYHQGNFELHGREEIMELESRLRKHLGINHISFRLHDMQHIGDKLILHGSLMFRIGDKEHHTEVDIIVIKINGKWLIESIFIR” displayed a protease stability score of 1.57.
“SEDEERLRKFAEHMVNLWFTGNENELTKLIDPDTRIDIDGKELHGMELAFRVLQEHLEKLGVKHQEVRDVEIYGDKFILHWTLHVGDFTLRMEVRIVVINGRVKSMEFRTDHR” returned a protease stability score of 1.89.
With “EEEQEDSEWATKLFIEVLETGDEHTSEHLADPDTRVEFNGKILHGREEWNKIVRKVKNARIHFDHIRVQGDKINVDTTVEVDGKRMKFHIISRKFNGVWFLQSIHIK” the figure was 2.07; with “DEDTKLVEEFLRDWLRALLTGDEEHLHKLLDPNTRVEINGQEFHGREMEVELMRHWRLDHIDIREIRITIIGNKVENHVRGRVDGEFDGRKINRETKLVNYVVKVNGRWLFHSMELRTH”, 1.35; with “DEREEEARKWIELFLRHLLTGDEDSLQELADPHTRNIVGDKDLIGWRFMIKYVRDVRERFDHIEFHITRMEVQGDKVRVDVRIINIVGDKHFEIESHIVTEKINGKWRLKSMELR”, 1.51.
Take “DESEELAKQFMEVLARSMRTGDEEKIVKMLDPNVKVVINGVELHGREALEHILREIRVEDVWLTHIFVQGEKVRIDYREKGEFNGRLDTLTVHIIVKKIDGKWKITEFRIH”: the protease stability score was 1.89.
On to “SQEERTHRELLRLLLESLTTGDEDTLRHLMDPHMIIRIGDKHFHGWDWIVHLFRKLGADHMEVEIRDEDIIDGRIRHHGSLHIHVDGRTEHIETILFVEKVNGRWVIRSVEFR”, for which the protease stability score worked out at 1.64.
With “SEEEFFTEMALRIYIELFETGDEHLIERLADPNVIIDFNGREFIGREYFSRIFHFLRRHWRMRDVTLKDWRVFDGRLHMEVQLYGKVNGQETQRDTHLVSTKINGRWRIHSDKWD” the figure was 1.25; with “DESTEHLHRFFDLLIEWIRTGDEESLNKNADPNTRVEAENHEEHGREKFSKHLSEIMTHMRSHFVLRHVSFVGDKAIFDVEVIIIVNGREIKVRTFIIVVKINGRWLLKSVHIE”, 1.6.
“SEDEEQARHFVEMLEHVERTGDWRELEKLVDPHVIMDIDGVRHHGRHEVVDLSKKLGVDHVSLEHLEVQGDKAIIHFNMHVNGVEMHHHVDTRKVNGRWLNERIILK”: the protease stability score worked out at 0.488.
Consider “SEEEDYMRELAERFLHAFITGDWQFIYKMFDPRVRWNVDGQNFVGREQLVHHLEKIKREMRVRHFELKDIKIIDGVSFINGRVDTTYGDKSSEHEVHISLVLIDGRVKHVQIRLE”, for which the protease stability score is 2.34.
With “SEEEKEAEEAMKRSLRSLETGDEELLDEMADPDVRLHVGEFQLIGRESFRKHQRRLTKRFKNMRFHIHRMEVYGEKLSIFGRFHWDGVDTETEIIEVKINGRWFLREVHIR”, the protease stability score was 0.639.
Turning to “SEDEEHAELALRLWEIVEKTGDETEARKMFDPHTRIIIDGRDLIGWSFIRHLMRRFDHVDIDHKREKRREFQGEKVRMDIEVDMEFVVGEKIYRIDFRVNIVLLKVNGKWRIHSLEIK”, the protease stability score was 2.47.
“DEEERDIKIAIEFWIETWLTGDEEKEEELLDPNVRLLINGKELHGRERVVKFLKRHYHRVDHSRIDIRRMHVVDGQVHVETELRVHFDGRELRFDIILHFRKFNGRWEITKIELR”: the protease stability score came out at 2.
In the case of “SETKKLWKDLADEVLRAWETGNEEEMEKMLDPHTRLHIHINGRDFHAHGRENIIRMMKFTLDFLGIDHFILRRVTYINGVVHIHQQVIINGQESNVRLEVEIIDGVWHEISVDIH” it was 1.44.
The sequence “SEEEEDIRKFLEDHHRAFATGDEKRLTELMDPNVRFDVNGVDRHGRELAVEMLHKQREEMGIDHLETIEMQDHEVYGDYIHLDVEVHIRVNGKRHILKRRILWLKINGRWTIKHEQLR” registered a protease stability score of 0.464.
With “DEEEEERRRIAKELTHLWHTGDEDRLIEMADPNDRILIGDFDIHGWESAMRFLRYFRREFGVKHEEIKDIEIQGEKTHIHSHLKVGDKRHHVLVILVVINGRHKRIEIRIH” the figure was 0.755.
In turn, “DEERDEARRVLEIFIKVFRTGDWHILHELADPHVRMDVNGREFIGREDYVKFFRYEMEIFGVERIDIKIHDVHVYNGRIEVHTRQNINGKERDTHLEIHKINGQWHLRDVRIH” returned a protease stability score of 1.44.
As for “DEEEKEAYIWLELLLEHERTGNEEEIMHLADPHTRLQFNGVESHGRERFFEHVRHKIRHMRVEIRIRNFEFQGEYAHLHGEDILRIGDKTERIDMRFVLLVVNGRIKSIHIHVH”, the protease stability score was 0.694.
Regarding “DELHKFAEEFMKIFVHNFFTGDWRTMHELLDPHVRLDFNGVEHIGRENVLKFWEEIRRRYDHFHIEVKRVETQGEKAHSDVHLEFRINGQEEHRKQHWHLDVINGRIHSFFVEVE”, the protease stability score was found to be 2.03.
“DEIERRAREFFELWMQTVRTGDEHASSELLDPHVRIEQGDKSFHGRETYNEILHHLHRHMWFEIYLDSIEIQGDKIHARVNFVYIIGDKESWIDVHIHIDVINGRMKRLEIRDH” returned a protease stability score of 0.511.
“NELQYKILHALRLFVESLLTGDPTTIERLLDPDARNQWDGVHHVGMEEWSRFLEELRIQIHDLEFKHIEIVDGQLRVDGREDMIIDVNGVRTRTNRKLRLIIVKFDGRWRIESVKVE” returned a protease stability score of 1.22.
With “DEWKRLALEVLRLWEEFMSTGDEKSVEELADPNVRILYDGVQLHGMDEVRRHLKELREHSHHVEIRRATVIDGRVHVDGTLDVTIEIGDKKIREEIRVKIHIIKVNGKWFVHSVEFR”, the protease stability score was found to be 1.49.
Turning to “DEERKEFEEVFRQWIHALRTGDEDSELRNLDPNARIVVGDKEVHGREESERYLRETLHRADHMDFELHRLDVQGDKVHIDGTMILVVNGQEIRYRIHFISVKIDGRWLLRSVIIH”, the protease stability score was determined as 1.86.
Turning to “DEWDEMLHEWAERIIKHFITGDWESFVKMADPHVRLHVDGKDFIGRERMEEAFKELLERLGVDHVELHHVRVINGQNDVDEDVKVGNKRLKVIHHLVVYNGRIKSIEIETR”, the protease stability score worked out at 1.39.
The sequence “REEDHRSRHLSELWIHLWETGDEETMKKLADPNMRINVNGQEFHGREQATRHIHEFLEKFKNVRLHVENIRIQGEKILIISRAEVDGQELEIHIELIIVDGRIEEVNLHVYRR” registered a protease stability score of 1.46.
“DEEEEWVRHLAHLFFEWYLTGDWQRFSELMDPTTLSVYGDKHFHGMELVVEFLSRSLDEMRIEHVEFKDIRVYNGVAHVHLRFEGKIGDKRTETDSRLLLYVVDGRIKHVKFIIK” had a protease stability score of 1.39.
For the sequence “IEQKEAWDEVYRIFVEAVRTGDWKSFERLLDPHTRIHFENREFHGREALEHDREKYKNMKLEHIEIKDQRVQGDKVIQFSHVVGNIDGRRLRFDIEIQFSKVDGVWTIELVIVR”, the protease stability score was 1.52.
“DEEEKEAREALEEFIRSVHTGDEDHMVWMFDPNTRIEVGDKKLHGRELAEEFAERWKKHIRLEDVNLTEVHVQGEKVHIRGILHGTVGDKEVRRESEVMMLKVDGRWFLHSIKFK” registered a protease stability score of 0.463.
As to “DEDEHYAREAVHLVYEILHTGDEHELMKYADPDTRIDIGDKTHIGRDRVVEAIHKMHKKLGVDHEVLTDSKVHWQGNKIEIYLKIEIHVGDKRFEMDIIIHLEKINGRWRVKSMRIDFR”, the protease stability score was 1.33.
With “DSLEDIFKLAVDDLEFLYETGDEEMTSQMADPNVRVIFNGRDFWGWHYLLKIFSELIKKLGIDHIRLEIDHVHLQGDKVDIHGTLRNHIGDFIFVHHTTHFLVKIDGRWFIRSVKIR” the figure was 2.15; with “DEEDEQLHRFAQLYFEAMVTGDEDLLRHLLDPHVRVHINGRELHGRENMAKWLKDFWDKYKNVQLNLHHIRVIGDKVHMDVEMDVNGREERVHIHVEMIDGVVHSSHHRIE”, 1.02.
“QEDEDFVRWALHVFMRYVLTGDEESLERLLDPDVRITVGNKHLHGMENATNELRHMSKQVDHIHDLRFHDVRSINGRIHETGIDDGIINGRRIHRESILVIEKVNGRWHFHSIRVL”: the protease stability score is 0.836.
Sequence “SEDEEFAKRFFEILVHYHKTGDWEKRMKMADPNTRSDINGVHFHGREDIYRFEDELWREMGIDHVEFHVRDSDIQGDKLHLHTQVIIHVGNKHIELDERMILLKFNGQWVLESLEVK” gave a protease stability score of 1.32.
With “DENTRLRREAFRIERKTWKTGDERLLEENADPDAKYDVDGKDLHGWREVVHFLDDFLKRFGFDHFEVKEIRVQGEKIIIDGRVEVNGRVFETRVIFTKFDGQWSVQSLQMR” the figure was 0.444; with “SEEDELAREVSRIFTEASRTGDEERLIRLIDPHAKIQIGDKHFIGREDMEEWTRRLVERVDHLEVFIEDSRLIGNKLDVKGLFIEDYGDKRTVLEVRWILVKINGRWSIHSLHFK”, 1.23; with “DEKTEQSREIIELLLKALQTGDEDTLTELLDPHVKIHIGDKDYHGREEVSRLLQEFWDRFKNARIEIHDYRDINGRVHVDLRHVVGDKTYTSKWNILKVNGRWYIEQIHVH”, 2.07.
“SEWEEELERLLREIIHSILTGDEKRLRELMDPNAKFHILVNGVEIDLMGMEHHSHWFREWLKHARINTVHIRHYDVVGEKARSDTELDMEIDGRRIRTRTELILVVIDGRVHSLEIRIK” registered a protease stability score of 2.02.
